Laboratory results: publication PMC3266934, “The Murine Coronavirus Hemagglutinin-esterase Receptor-binding Site: A Major Shift in Ligand Specificity through Modest Changes in Architecture” (PLoS Pathogens, 2012)

Target: the molecule itself
Assay: crystal structure; crystals of the thrombin-released ectodomain, space group P2(1)2(1)2(1), two HE molecules in the asymmetric unit; free HE (2.1 Å) and HE^0 soaked with a sialic acid receptor analogue (2.5 Å); 0.2 M KH2PO4, 0.2 M sodium malonate, 15% PEG3350, 18°C

Protein | binding result
MHV-S HE ectodomain (mouse hepatitis virus strain S hemagglutinin-esterase, residues 25-403), released from HE-Fc by thrombin cleavage (domain or fragment, also called free MHV-S HE; not shown: Fc (human IgG1), C-terminal, cleaved) FNEPLNIVSHLNDDWFLFGDSRSDCTYVENNGHPKLDWLDLDPKLCNSGRISAKSGNSLFRSFHFIDFYNYSGEGDQVIFYEGVNFSPSHGFKCLAYGDNKRWMGNKARFYARVYEKMAQYRSLSFVNVSYAYGGNAKPTSICKDKTLTLNNPTFISKESNYVDYYYESEANFTLQGCDEFIVPLCVFNGHSKGSSSDPANKYYTDSQSYYNMDTGVLYGFNSTLDVGNTVQNPGLDLTCRYLALTPGNYKAVSLEYLLSLPSKAICLRKPKSFMPVQVVDSRWNSTRQSDNMTAVACQLPYCFFRNTSADYSGGTHDVHHGDFHFRQLLSGLLYNVSCIAQQGAFVYNNVSSSWPAYGYGHCPTAANIGYMAPVCIYD | binds
MHV-S HE^0 ectodomain (esterase-inactive, Ser45 replaced by Ala, residues 25-403), released from HE^0-Fc by thrombin cleavage (domain or fragment, not shown: Fc (human IgG1), C-terminal, cleaved) FNEPLNIVSHLNDDWFLFGDARSDCTYVENNGHPKLDWLDLDPKLCNSGRISAKSGNSLFRSFHFIDFYNYSGEGDQVIFYEGVNFSPSHGFKCLAYGDNKRWMGNKARFYARVYEKMAQYRSLSFVNVSYAYGGNAKPTSICKDKTLTLNNPTFISKESNYVDYYYESEANFTLQGCDEFIVPLCVFNGHSKGSSSDPANKYYTDSQSYYNMDTGVLYGFNSTLDVGNTVQNPGLDLTCRYLALTPGNYKAVSLEYLLSLPSKAICLRKPKSFMPVQVVDSRWNSTRQSDNMTAVACQLPYCFFRNTSADYSGGTHDVHHGDFHFRQLLSGLLYNVSCIAQQGAFVYNNVSSSWPAYGYGHCPTAANIGYMAPVCIYD | binds
